We go through 27 molecules from paper PMC10786891, “Massively parallel profiling of RNA-targeting CRISPR-Cas13d”.

T1: EsCas13d, nuclease-dead (Eubacterium siraeum, UniProt B0MS50, R295A;H300A;R849A;H854A)
T1 sequence: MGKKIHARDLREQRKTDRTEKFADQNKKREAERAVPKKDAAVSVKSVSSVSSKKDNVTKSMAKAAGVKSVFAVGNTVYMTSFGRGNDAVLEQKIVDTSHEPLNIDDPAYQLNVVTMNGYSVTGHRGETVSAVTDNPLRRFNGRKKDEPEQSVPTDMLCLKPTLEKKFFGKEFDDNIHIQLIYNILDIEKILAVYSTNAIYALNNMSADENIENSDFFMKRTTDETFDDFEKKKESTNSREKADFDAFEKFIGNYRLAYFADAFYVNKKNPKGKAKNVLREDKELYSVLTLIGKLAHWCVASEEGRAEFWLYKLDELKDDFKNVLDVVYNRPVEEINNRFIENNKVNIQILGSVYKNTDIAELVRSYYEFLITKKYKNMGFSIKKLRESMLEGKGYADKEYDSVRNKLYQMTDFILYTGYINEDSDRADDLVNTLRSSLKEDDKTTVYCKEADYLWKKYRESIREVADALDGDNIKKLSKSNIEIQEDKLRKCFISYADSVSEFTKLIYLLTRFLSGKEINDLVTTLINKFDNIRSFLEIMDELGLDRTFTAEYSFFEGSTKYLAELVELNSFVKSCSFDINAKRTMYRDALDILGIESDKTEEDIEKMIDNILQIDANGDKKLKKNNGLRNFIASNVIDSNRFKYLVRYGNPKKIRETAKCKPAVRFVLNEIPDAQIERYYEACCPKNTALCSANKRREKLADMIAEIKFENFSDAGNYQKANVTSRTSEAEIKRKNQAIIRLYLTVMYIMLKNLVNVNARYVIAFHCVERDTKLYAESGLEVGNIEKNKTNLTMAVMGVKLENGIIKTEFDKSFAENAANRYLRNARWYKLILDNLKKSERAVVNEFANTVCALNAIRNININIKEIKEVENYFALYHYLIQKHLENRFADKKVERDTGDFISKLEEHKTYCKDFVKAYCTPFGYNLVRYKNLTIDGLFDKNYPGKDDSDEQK

B1: target 1 U3A,G5A (mixed)
RNA 1: CACCCGUGCAAAAAUGCAGGGGUCUAAAACUGAGCGGAUAACCUCUCUAUGG
RNA 2: GGGAAUGGAUCCACAUCUACGAAUUCGUACCAUAGAGAGGUUAUCCACACACCGAGAUCGGAAGAGCACACGU
B2: target 1 insU 3' of 9,insA 3' of 4 (mixed)
RNA 1: CACCCGUGCAAAAAUGCAGGGGUCUAAAACUGAGCGGAUAACCUCUCUAUGG
RNA 2: GGGAAUGGAUCCACAUCUACGAAUUCGUACCAUAGAGAGGUUAUUCCGCAUCACCGAGAUCGGAAGAGCACACGU
B3: target 1 C2A (mixed)
RNA 1: CACCCGUGCAAAAAUGCAGGGGUCUAAAACUGAGCGGAUAACCUCUCUAUGG
RNA 2: GGGAAUGGAUCCACAUCUACGAAUUCGUACCAUAGAGAGGUUAUCCGCUAACCGAGAUCGGAAGAGCACACGU
B4: target 1 insG 3' of 6,insU 3' of 2 (mixed)
RNA 1: CACCCGUGCAAAAAUGCAGGGGUCUAAAACUGAGCGGAUAACCUCUCUAUGG
RNA 2: GGGAAUGGAUCCACAUCUACGAAUUCGUACCAUAGAGAGGUUAUCCGGCUCUACCGAGAUCGGAAGAGCACACGU
B5: target 1 insC 3' of 18,insG 3' of 3 (mixed)
RNA 1: CACCCGUGCAAAAAUGCAGGGGUCUAAAACUGAGCGGAUAACCUCUCUAUGG
RNA 2: GGGAAUGGAUCCACAUCUACGAAUUCGUACCAUACGAGAGGUUAUCCGCUGCACCGAGAUCGGAAGAGCACACGU
B6: target 1 insG 3' of 20,insU 3' of 18 (mixed)
RNA 1: CACCCGUGCAAAAAUGCAGGGGUCUAAAACUGAGCGGAUAACCUCUCUAUGG
RNA 2: GGGAAUGGAUCCACAUCUACGAAUUCGUACCAGUAUGAGAGGUUAUCCGCUCACCGAGAUCGGAAGAGCACACGU
B7: target 1 insU 3' of 14,insU 3' of 12 (mixed)
RNA 1: CACCCGUGCAAAAAUGCAGGGGUCUAAAACUGAGCGGAUAACCUCUCUAUGG
RNA 2: GGGAAUGGAUCCACAUCUACGAAUUCGUACCAUAGAGAUGGUUUAUCCGCUCACCGAGAUCGGAAGAGCACACGU
B8: target 1 insA 3' of 12,insG 3' of 4 (mixed)
RNA 1: CACCCGUGCAAAAAUGCAGGGGUCUAAAACUGAGCGGAUAACCUCUCUAUGG
RNA 2: GGGAAUGGAUCCACAUCUACGAAUUCGUACCAUAGAGAGGAUUAUCCGCGUCACCGAGAUCGGAAGAGCACACGU
B9: target 1 insU 3' of 12,insG 3' of 2 (mixed)
RNA 1: CACCCGUGCAAAAAUGCAGGGGUCUAAAACUGAGCGGAUAACCUCUCUAUGG
RNA 2: GGGAAUGGAUCCACAUCUACGAAUUCGUACCAUAGAGAGGUUUAUCCGCUCGACCGAGAUCGGAAGAGCACACGU
B10: target 1 insC 3' of 15,insG 3' of 11 (mixed)
RNA 1: CACCCGUGCAAAAAUGCAGGGGUCUAAAACUGAGCGGAUAACCUCUCUAUGG
RNA 2: GGGAAUGGAUCCACAUCUACGAAUUCGUACCAUAGAGCAGGUGUAUCCGCUCACCGAGAUCGGAAGAGCACACGU
B11: target 1 insC 3' of 13,insU 3' of 13 (mixed)
RNA 1: CACCCGUGCAAAAAUGCAGGGGUCUAAAACUGAGCGGAUAACCUCUCUAUGG
RNA 2: GGGAAUGGAUCCACAUCUACGAAUUCGUACCAUAGAGAGCUGUUAUCCGCUCACCGAGAUCGGAAGAGCACACGU
B12: target 1 U10A,C22A (mixed)
RNA 1: CACCCGUGCAAAAAUGCAGGGGUCUAAAACUGAGCGGAUAACCUCUCUAUGG
RNA 2: GGGAAUGGAUCCACAUCUACGAAUUCGUAACAUAGAGAGGUAAUCCGCUCACCGAGAUCGGAAGAGCACACGU
B13: target 1 C2A,U19C (mixed)
RNA 1: CACCCGUGCAAAAAUGCAGGGGUCUAAAACUGAGCGGAUAACCUCUCUAUGG
RNA 2: GGGAAUGGAUCCACAUCUACGAAUUCGUACCACAGAGAGGUUAUCCGCUAACCGAGAUCGGAAGAGCACACGU
B14: target 1 G12A,G13U (mixed)
RNA 1: CACCCGUGCAAAAAUGCAGGGGUCUAAAACUGAGCGGAUAACCUCUCUAUGG
RNA 2: GGGAAUGGAUCCACAUCUACGAAUUCGUACCAUAGAGAUAUUAUCCGCUCACCGAGAUCGGAAGAGCACACGU
B15: target 1 A1C,C2A (mixed)
RNA 1: CACCCGUGCAAAAAUGCAGGGGUCUAAAACUGAGCGGAUAACCUCUCUAUGG
RNA 2: GGGAAUGGAUCCACAUCUACGAAUUCGUACCAUAGAGAGGUUAUCCGCUACCCGAGAUCGGAAGAGCACACGU
B16: target 1 U8A,C22G (mixed)
RNA 1: CACCCGUGCAAAAAUGCAGGGGUCUAAAACUGAGCGGAUAACCUCUCUAUGG
RNA 2: GGGAAUGGAUCCACAUCUACGAAUUCGUAGCAUAGAGAGGUUAACCGCUCACCGAGAUCGGAAGAGCACACGU
B17: target 1 insA 3' of 10,insG 3' of 4 (mixed)
RNA 1: CACCCGUGCAAAAAUGCAGGGGUCUAAAACUGAGCGGAUAACCUCUCUAUGG
RNA 2: GGGAAUGGAUCCACAUCUACGAAUUCGUACCAUAGAGAGGUUAAUCCGCGUCACCGAGAUCGGAAGAGCACACGU
B18: target 1 C2G,G17U (mixed)
RNA 1: CACCCGUGCAAAAAUGCAGGGGUCUAAAACUGAGCGGAUAACCUCUCUAUGG
RNA 2: GGGAAUGGAUCCACAUCUACGAAUUCGUACCAUAUAGAGGUUAUCCGCUGACCGAGAUCGGAAGAGCACACGU
B19: target 1 insC 3' of 14,insG 3' of 6 (mixed)
RNA 1: CACCCGUGCAAAAAUGCAGGGGUCUAAAACUGAGCGGAUAACCUCUCUAUGG
RNA 2: GGGAAUGGAUCCACAUCUACGAAUUCGUACCAUAGAGACGGUUAUCCGGCUCACCGAGAUCGGAAGAGCACACGU
B20: target 1 insG 3' of 16,insU 3' of 16 (mixed)
RNA 1: CACCCGUGCAAAAAUGCAGGGGUCUAAAACUGAGCGGAUAACCUCUCUAUGG
RNA 2: GGGAAUGGAUCCACAUCUACGAAUUCGUACCAUAGAGUGAGGUUAUCCGCUCACCGAGAUCGGAAGAGCACACGU
B21: target 1 insG 3' of 14,insA 3' of 4 (mixed)
RNA 1: CACCCGUGCAAAAAUGCAGGGGUCUAAAACUGAGCGGAUAACCUCUCUAUGG
RNA 2: GGGAAUGGAUCCACAUCUACGAAUUCGUACCAUAGAGAGGGUUAUCCGCAUCACCGAGAUCGGAAGAGCACACGU
B22: target 1 U8C,G15C (mixed)
RNA 1: CACCCGUGCAAAAAUGCAGGGGUCUAAAACUGAGCGGAUAACCUCUCUAUGG
RNA 2: GGGAAUGGAUCCACAUCUACGAAUUCGUACCAUAGACAGGUUACCCGCUCACCGAGAUCGGAAGAGCACACGU
B23: target 1 insC 3' of 17,insA 3' of 4 (mixed)
RNA 1: CACCCGUGCAAAAAUGCAGGGGUCUAAAACUGAGCGGAUAACCUCUCUAUGG
RNA 2: GGGAAUGGAUCCACAUCUACGAAUUCGUACCAUAGCAGAGGUUAUCCGCAUCACCGAGAUCGGAAGAGCACACGU
B24: target 1 insA 3' of 8,insG 3' of 3 (mixed)
RNA 1: CACCCGUGCAAAAAUGCAGGGGUCUAAAACUGAGCGGAUAACCUCUCUAUGG
RNA 2: GGGAAUGGAUCCACAUCUACGAAUUCGUACCAUAGAGAGGUUAUACCGCUGCACCGAGAUCGGAAGAGCACACGU
B25: target 1 C2U,G15A (mixed)
RNA 1: CACCCGUGCAAAAAUGCAGGGGUCUAAAACUGAGCGGAUAACCUCUCUAUGG
RNA 2: GGGAAUGGAUCCACAUCUACGAAUUCGUACCAUAGAAAGGUUAUCCGCUUACCGAGAUCGGAAGAGCACACGU
B26: target 1 insC 3' of 11,insU 3' of 9 (mixed)
RNA 1: CACCCGUGCAAAAAUGCAGGGGUCUAAAACUGAGCGGAUAACCUCUCUAUGG
RNA 2: GGGAAUGGAUCCACAUCUACGAAUUCGUACCAUAGAGAGGUCUAUUCCGCUCACCGAGAUCGGAAGAGCACACGU
B27: target 1 G5U,G13A (mixed)
RNA 1: CACCCGUGCAAAAAUGCAGGGGUCUAAAACUGAGCGGAUAACCUCUCUAUGG
RNA 2: GGGAAUGGAUCCACAUCUACGAAUUCGUACCAUAGAGAAGUUAUCCUCUCACCGAGAUCGGAAGAGCACACGU

In this series the target is T1, EsCas13d, nuclease-dead. In words: crRNA (strand 1, pre-loaded); Mg2+; 40 mM Tris-HCl pH 7.5, 150 mM NaCl, 6 mM MgCl2, 1 mM DTT, 0.1% Tween-20, 0.2 mg/ml BSA; 25 C; 10 min per concentration, then washed. Conditions: tags: His6-TwinStrep-SUMO cleaved; N-terminal SNAP kept (SNAP-Surface 488); label: 3' end held by stalled T7 RNA polymerase.
A word on the Kd: it is the free concentration of one partner at which half of the binding sites on the other are occupied at equilibrium, for simple one-to-one binding. A low value points to higher affinity. Take B1: the Kd stood at 53 ± 8 nM.
Turning to B2, the Kd was determined as 8 ± 1 nM. Compared with the last molecule, the Kd is about 6.6-fold lower.
With B3 the figure was 9.3 ± 0.9 nM.
With B4 the figure was 16.4 ± 0.9 nM; with B5, 26.8 ± 1.8 nM.
In turn, B6 registered a Kd of 65 ± 15 nM. This Kd is about 2.4-fold higher than that of the molecule before.
With B7 the figure was 26.6 ± 2.7 nM; with B8, 16.2 ± 1.1 nM; with B9, 6.9 ± 0.6 nM.
As for B10, the figure is 41 ± 6 nM.
As to B11, binding was put at a Kd of 8.3 ± 0.4 nM. Against the preceding molecule, the Kd is about 4.9-fold lower.
In the case of B12, the affinity, expressed as Kd, was 12.5 ± 1.2 nM. This Kd lies about 1.5-fold higher than the previous one.
With B13 the figure was 22.1 ± 1.6 nM.
With B14 the figure was 14.6 ± 1.4 nM; with B15, 36 ± 4 nM; with B16, 68 ± 13 nM.
In turn, B17 registered a Kd of 6.44 ± 0.26 nM.
B18 registered a Kd of 14.5 ± 0.7 nM.
As for B19, the affinity, expressed as Kd, was 54 ± 6 nM.
With B20 the figure was 44 ± 8 nM.
The molecule B21 yielded a Kd of 12.2 ± 1.4 nM. Against the preceding molecule, the Kd is about 3.6-fold lower.
As for B22, the figure is 68 ± 11 nM; as for B23, 28.6 ± 2.3 nM; as for B24, 10 ± 0.7 nM.
With B25, binding was characterised by a dissociation constant (Kd) of 13.7 ± 0.7 nM.
With B26 the figure was 40 ± 17 nM.
With B27 the figure was 11.5 ± 0.5 nM.
